According to patent US20250170268A1 (Merck KGaA, published 2025):

Target: T1, Human CEACAM5 protein (human, UniProt P06731 35-702)
T1 sequence: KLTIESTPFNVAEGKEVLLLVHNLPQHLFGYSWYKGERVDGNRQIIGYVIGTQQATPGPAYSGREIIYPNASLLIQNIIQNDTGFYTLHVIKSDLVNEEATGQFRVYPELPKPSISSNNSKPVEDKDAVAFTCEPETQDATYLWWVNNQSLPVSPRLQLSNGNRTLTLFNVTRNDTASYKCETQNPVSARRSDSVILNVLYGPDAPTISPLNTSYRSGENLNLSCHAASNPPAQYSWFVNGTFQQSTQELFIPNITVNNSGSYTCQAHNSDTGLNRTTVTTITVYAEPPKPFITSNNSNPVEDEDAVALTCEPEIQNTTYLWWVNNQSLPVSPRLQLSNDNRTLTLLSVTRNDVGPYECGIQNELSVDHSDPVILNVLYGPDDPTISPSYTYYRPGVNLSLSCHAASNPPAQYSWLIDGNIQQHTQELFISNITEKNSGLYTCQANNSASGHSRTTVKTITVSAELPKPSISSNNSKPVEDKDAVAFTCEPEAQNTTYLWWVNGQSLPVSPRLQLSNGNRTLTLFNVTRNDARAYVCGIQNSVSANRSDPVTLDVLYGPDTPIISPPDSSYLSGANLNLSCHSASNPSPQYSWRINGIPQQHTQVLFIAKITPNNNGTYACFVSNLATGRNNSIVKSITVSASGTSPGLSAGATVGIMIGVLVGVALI
Assay: cell-based or functional assay

B1: ADC8 (an analog of labetuzumab govitecan) (antibody, human IgG1, kappa)
heavy: not shown
light: DIQLTQSPSSLSASVGDRVTITCKASQDVGTSVAWYQQKPGKAPKLLIYWTSTRHTGVPSRFSGSGSGTDFTFTISSLQPEDIATYYCQQYSLYRSFGQGTKVEIKRTVAAPSVFIFPPSDEQLKSGTASVVCLLNNFYPREAKVQWKVDNALQSGNSQESVTEQDSKDSTYSLSSTLTLSKADYEKHKVYACEVTHQGLSSPVTKSFNRGEC
modifications: purchased drug-linker on reduced interchain cysteines; purchased drug-linker on reduced interchain cysteines, DAR of 7.7 for the whole antibody
SPECIFICITY FACTOR (IC50 in MDA-MB-231 divided by IC50 in MKN-45): 2.5 fold
SPECIFICITY FACTOR (IC50 in MDA-MB-231 divided by IC50 in SK-CO-1): 4.8 fold
SPECIFICITY FACTOR (IC50 in MDA-MB-231 divided by IC50 in SNU-16): 1.8 fold
